The record followed here is the RNAGym collection of RNA variant scans (doi:10.7554/elife.90254).

The labels stand for the following.
B1: OR4K15 (parent)
chain: GUUAACGGUCAUAGGCCAUGGAAACUAGGAGCACCAUUUCGCUGCCAGUGAAGAAAUGAACAAAGAAAAUCUGGGCCAGGCAGGCAUCAAAAGAAAUAGUCUUGCGCUCAACCAGAAAGUCUGUAAUCAUUUUAAGGGUA

This data set covers variants of B1. The data set is described as follows: self-cleavage, relative activity (ratio to wild type); higher = more cleavage; in vitro, sequencing; the parent is a self-cleaving ribozyme.
GUUAACGGUCAUAGGCCAUGGAAACUAGGAGCACCAUUUCGCUGCCAGUGAAGAAAUGAACAAAGAAAAUCUGGGCCAGGCAGGCAUCAAAAGAAAUAGUCUUGCCCCCAACCAGAAAGUCUGUAAUCAUUUUAAGGGUA [G106C U108C]: the self-cleavage was 0. In the case of GUUAACGGUCAUAGGCCAUGGAAACUAGGAGCACCAUUUCGCUGCCAGUGAAGAAAUGAACAAAGAAAAUCUGGGCCAGGCAGGCAUCAAAAGAAAUAGUCUUGCCCUCAACCAGAAAGUCUGUAAUCUUUUUAAGGGUA [G106C A129U], the self-cleavage is 0. Regarding GUUAACGGUCAUAGGCCAUGGAAACUAGGAGCACCAUUUCGCUGCCAGUGAAGAAAUGAACAAAGAAAAUCUGGGCCAGGCAGGCAUCAAAAGAAAUAGUCUUGCGCACAACCAGAAAGUCUUUAAUCAUUUUAAGGGUA [U108A G123U], the self-cleavage was determined as 0.01. In the case of GUUAACGGUCAUAGGCCAUGGAAACUAGGAGCACCAUUUCGCUGCCAGUGAAGAAAUGAACAAAGAAAAUCUGGGCCAGGCAGGCAUCAAAAGAAAUAGUCUUGCGCACAACCAGAAAGUCUCUAAUCAUUUUAAGGGUA [U108A G123C], the self-cleavage stood at 0.01. Regarding GUUAACGGUCAUAGGCCAUGGAAACUAGGAGCACCAUUUCGCUGCCAGUGAAGAAAUGAACAAAGAAAAUCUGGGCCAGGCAGGCAUCAAAAGAAAUAGUCUUGCGGUCAACCAGAAAGUCUGUAAUCAUUUUAAGGGUA [C107G], the self-cleavage is 0.02. For the variant GUUAACGGUCAUAGGCCAUGGAAACUAGGAGCACCAUUUCGCUGCCAGUGAAGAAAUGAACAAAGAAAAUCUGGGCCAGGCAGGCAUCAAAAGAAAUAGUCUUGCGAUCAACCAGAAAGUCUGUAAUCAUUUUAAGGGUA [C107A], the self-cleavage came to 0.03. For GUUAACGGUCAUAGGCCAUGGAAACUAGGAGCACCAUUUCGCUGCCAGUGAAGAAAUGAACAAAGAAAAUCUGGGCCAGGCAGGCAUCAAAAGAAAUAGUCUUGCGUUCAACCAGAAAGUCUGUAAUCAUUUUAAGGGUA [C107U], the self-cleavage was determined as 0.02. As for GUUAACGGUCAUAGGCCAUGGAAACUAGGAGCACCAUUUCGCUGCCAGUGAAGAAAUGAACAAAGAAAAUCUGGGCCAGGCAGGCAUCAAAAGAAAUAGUCUUGCACUCAACCAGAAAGUCAGUAAUCAUUUUAAGGGUA [G106A U122A], the self-cleavage is 0.01. As for GUUAACGGUCAUAGGCCAUGGAAACUAGGAGCACCAUUUCGCUGCCAGUGAAGAAAUGAACAAAGAAAAUCUGGGCCAGGCAGGCAUCAAAAGAAAUAGUCUUGCUCUCAACCAGAAAGUCUGUAAUCGUUUUAAGGGUA [G106U A129G], the self-cleavage is 0.01. GUUAACGGUCAUAGGCCAUGGAAACUAGGAGCACCAUUUCGCUGCCAGUGAAGAAAUGAACAAAGAAAAUCUGGGCCAGGCAGGCAUCAAAAGAAAUAGUCUUGCACUCAACCAGAAAGUCUGUAAUCAUCUUAAGGGUA [G106A U131C]: the self-cleavage stood at 0.03. With GUUAACGGUCAUAGGCCAUGGAAACUAGGAGCACCAUUUCGCUGCCAGUGAAGAAAUGAACAAAGAAAAUCUGGGCCAGGCAGGCAUCAAAAGAAAUAGUCUUGCCCUCAACCAGAAAGUCUGUAACCAUUUUAAGGGUA [G106C U127C], the self-cleavage was 0. As for GUUAACGGUCAUAGGCCAUGGAAACUAGGAGCACCAUUUCGCUGCCAGUGAAGAAAUGAACAAAGAAAAUCUGGGCCAGGCAGGCAUCAAAAGAAAUAGUCUUGCGCACAACCAGAAAGUCUGUAACCAUUUUAAGGGUA [U108A U127C], the self-cleavage is 0. Take GUUAACGGUCAUAGGCCAUGGAAACUAGGAGCACCAUUUCGCUGCCAGUGAAGAAAUGAACAAAGAAAAUCUGGGCCAGGCAGGCAUCAAAAGAAAUAGUCUUGCACUCAACCAGAAAGUCUGCAAUCAUUUUAAGGGUA [G106A U124C]: the self-cleavage was 0.01.

On to GUUAACGGUCAUAGGCCAUGGAAACUAGGAGCACCAUUUCGCUGCCAGUGAAGAAAUGAACAAAGAAAAUCUGGGCCAGGCAGGCAUCAAAAGAAAUAGUCUUGCGUUCAACCAGAAAGUCAGUAAUCAUUUUAAGGGUA [C107U U122A], for which the self-cleavage stood at 0.

For GUUAACGGUCAUAGGCCAUGGAAACUAGGAGCACCAUUUCGCUGCCAGUGAAGAAAUGAACAAAGAAAAUCUGGGCCAGGCAGGCAUCAAAAGAAAUAGUCUUGCGCACAACCAGAAAGUCUGUAAUCACUUUAAGGGUA [U108A U130C], the self-cleavage was determined as 0.01.

Turning to GUUAACGGUCAUAGGCCAUGGAAACUAGGAGCACCAUUUCGCUGCCAGUGAAGAAAUGAACAAAGAAAAUCUGGGCCAGGCAGGCAUCAAAAGAAAUAGUCUUGCGCACAACCAGAAAGACUGUAAUCAUUUUAAGGGUA [U108A U120A], the self-cleavage was determined as 0.02. The result for GUUAACGGUCAUAGGCCAUGGAAACUAGGAGCACCAUUUCGCUGCCAGUGAAGAAAUGAACAAAGAAAAUCUGGGCCAGGCAGGCAUCAAAAGAAAUAGUCUUGCGCACAACCAGAAAGCCUGUAAUCAUUUUAAGGGUA [U108A U120C] reads 0.01.

Regarding GUUAACGGUCAUAGGCCAUGGAAACUAGGAGCACCAUUUCGCUGCCAGUGAAGAAAUGAACAAAGAAAAUCUGGGCCAGGCAGGCAUCAAAAGAAAUAGUCUUGCACUCAACCAGAAAGUCUGUAAUCAUUUUAAGGGAA [G106A U139A], the self-cleavage came to 0. For the variant GUUAACGGUCAUAGGCCAUGGAAACUAGGAGCACCAUUUCGCUGCCAGUGAAGAAAUGAACAAAGAAAAUCUGGGCCAGGCAGGCAUCAAAAGAAAUAGUCUUGCACUCAACCAGAAAGUCUGUAAUCAUUCUAAGGGUA [G106A U132C], the self-cleavage came out at 0.01. As to GUUAACGGUCAUAGGCCAUGGAAACUAGGAGCACCAUUUCGCUGCCAGUGAAGAAAUGAACAAAGAAAAUCUGGGCCAGGCAGGCAUCAAAAGAAAUAGUCUUGCGAUCAACCAGAAAGUCUGUAAUCAUUUAAAGGGUA [C107A U133A], the self-cleavage was determined as 0.02.

Consider GUUAACGGUCAUAGGCCAUGGAAACUAGGAGCACCAUUUCGCUGCCAGUGAAGAAAUGAACAAAGAAAAUCUGGGCCAGGCAGGCAUCAAAAGAAAUAGUCUUGCGCACAACCAGGAAGUCUGUAAUCAUUUUAAGGGUA [U108A A116G], for which the self-cleavage is 0.01. Consider GUUAACGGUCAUAGGCCAUGGAAACUAGGAGCACCAUUUCGCUGCCAGUGAAGAAAUGAACAAAGAAAAUCUGGGCCAGGCAGGCAUCAAAAGAAAUAGUCUUGCGCACAACCAGAAAGUCUGUAAUCUUUUUAAGGGUA [U108A A129U], for which the self-cleavage turned out to be 0.03.

Turning to GUUAACGGUCAUAGGCCAUGGAAACUAGGAGCACCAUUUCGCUGCCAGUGAAGAAAUGAACAAAGAAAAUCUGGGCCAGGCAGGCAUCAAAAGAAAUAGUCUUGCGUUCAACCAGAAAGUUUGUAAUCAUUUUAAGGGUA [C107U C121U], the self-cleavage is 0.01. As for GUUAACGGUCAUAGGCCAUGGAAACUAGGAGCACCAUUUCGCUGCCAGUGAAGAAAUGAACAAAGAAAAUCUGGGCCAGGCAGGCAUCAAAAGAAAUAGUCUUGCGCACAACCAGAAAGUUUGUAAUCAUUUUAAGGGUA [U108A C121U], the self-cleavage was 0.

In the case of GUUAACGGUCAUAGGCCAUGGAAACUAGGAGCACCAUUUCGCUGCCAGUGAAGAAAUGAACAAAGAAAAUCUGGGCCAGGCAGGCAUCAAAAGAAAUAGUCUUGCGCACGACCAGAAAGUCUGUAAUCAUUUUAAGGGUA [U108A A110G], the self-cleavage was 0.01. On to GUUAACGGUCAUAGGCCAUGGAAACUAGGAGCACCAUUUCGCUGCCAGUGAAGAAAUGAACAAAGAAAAUCUGGGCCAGGCAGGCAUCAAAAGAAAUAGUCUUGCGACCAACCAGAAAGUCUGUAAUCAUUUUAAGGGUA [C107A U108C], for which the self-cleavage stood at 0.02.

As for GUUAACGGUCAUAGGCCAUGGAAACUAGGAGCACCAUUUCGCUGCCAGUGAAGAAAUGAACAAAGAAAAUCUGGGCCAGGCAGGCAUCAAAAGAAAUAGUCUUGCGCACAACCAGAAAGUCCGUAAUCAUUUUAAGGGUA [U108A U122C], the self-cleavage came out at 0.04. As to GUUAACGGUCAUAGGCCAUGGAAACUAGGAGCACCAUUUCGCUGCCAGUGAAGAAAUGAACAAAGAAAAUCUGGGCCAGGCAGGCAUCAAAAGAAAUAGUCUUGCGCACAACCAGAAAGUCUGUAAUCAUUUUAAGGGAA [U108A U139A], the self-cleavage was 0.04. GUUAACGGUCAUAGGCCAUGGAAACUAGGAGCACCAUUUCGCUGCCAGUGAAGAAAUGAACAAAGAAAAUCUGGGCCAGGCAGGCAUCAAAAGAAAUAGUCUUGCGCACAACCAGAAAGUCUGUAAUCAUUUUAAGGGUA [U108A]: the self-cleavage stood at 0.02. Consider GUUAACGGUCAUAGGCCAUGGAAACUAGGAGCACCAUUUCGCUGCCAGUGAAGAAAUGAACAAAGAAAAUCUGGGCCAGGCAGGCAUCAAAAGAAAUAGUCUUGCGCCCAACCAGAAAGUCUGUAAUCAUUUUAAGGGUA [U108C], for which the self-cleavage was found to be 0.01. Take GUUAACGGUCAUAGGCCAUGGAAACUAGGAGCACCAUUUCGCUGCCAGUGAAGAAAUGAACAAAGAAAAUCUGGGCCAGGCAGGCAUCAAAAGAAAUAGUCUUGCGCACAACCAGAAAGUCUGUAAUCAUUUUAAGGGUG [U108A A140G]: the self-cleavage stood at 0. The result for GUUAACGGUCAUAGGCCAUGGAAACUAGGAGCACCAUUUCGCUGCCAGUGAAGAAAUGAACAAAGAAAAUCUGGGCCAGGCAGGCAUCAAAAGAAAUAGUCUUGCGCACAACCAGAAAGUCUGUAAUCAUUUUAAGGGUC [U108A A140C] reads 0.04; that for GUUAACGGUCAUAGGCCAUGGAAACUAGGAGCACCAUUUCGCUGCCAGUGAAGAAAUGAACAAAGAAAAUCUGGGCCAGGCAGGCAUCAAAAGAAAUAGUCUUGCACUCAACCAGAAAGUCUGUAAUCAUUUUAAGGGUU [G106A A140U], 0.05; that for GUUAACGGUCAUAGGCCAUGGAAACUAGGAGCACCAUUUCGCUGCCAGUGAAGAAAUGAACAAAGAAAAUCUGGGCCAGGCAGGCAUCAAAAGAAAUAGUCUUGCGCACAACCUGAAAGUCUGUAAUCAUUUUAAGGGUA [U108A A114U], 0. Consider GUUAACGGUCAUAGGCCAUGGAAACUAGGAGCACCAUUUCGCUGCCAGUGAAGAAAUGAACAAAGAAAAUCUGGGCCAGGCAGGCAUCAAAAGAAAUAGUCUUGCACCCAACCAGAAAGUCUGUAAUCAUUUUAAGGGUA [G106A U108C], for which the self-cleavage was 0. For the variant GUUAACGGUCAUAGGCCAUGGAAACUAGGAGCACCAUUUCGCUGCCAGUGAAGAAAUGAACAAAGAAAAUCUGGGCCAGGCAGGCAUCAAAAGAAAUAGUCUUGCGCACAACCAGAAAGUCUGUAAUCAUUAUAAGGGUA [U108A U132A], the self-cleavage stood at 0.01. For GUUAACGGUCAUAGGCCAUGGAAACUAGGAGCACCAUUUCGCUGCCAGUGAAGAAAUGAACAAAGAAAAUCUGGGCCAGGCAGGCAUCAAAAGAAAUAGUCUUGCGCACAACCAGAAAGUCUGUAAUCAUUCUAAGGGUA [U108A U132C], the self-cleavage was 0.03. On to GUUAACGGUCAUAGGCCAUGGAAACUAGGAGCACCAUUUCGCUGCCAGUGAAGAAAUGAACAAAGAAAAUCUGGGCCAGGCAGGCAUCAAAAGAAAUAGUCUUGCCCUCAACCAGGAAGUCUGUAAUCAUUUUAAGGGUA [G106C A116G], for which the self-cleavage amounted to 0.01. The result for GUUAACGGUCAUAGGCCAUGGAAACUAGGAGCACCAUUUCGCUGCCAGUGAAGAAAUGAACAAAGAAAAUCUGGGCCAGGCAGGCAUCAAAAGAAAUAGUCUUGCGCCCCACCAGAAAGUCUGUAAUCAUUUUAAGGGUA [U108C A110C] reads 0.

GUUAACGGUCAUAGGCCAUGGAAACUAGGAGCACCAUUUCGCUGCCAGUGAAGAAAUGAACAAAGAAAAUCUGGGCCAGGCAGGCAUCAAAAGAAAUAGUCUUGCGGUCAACCAGAGAGUCUGUAAUCAUUUUAAGGGUA [C107G A117G]: the self-cleavage turned out to be 0.01. For the variant GUUAACGGUCAUAGGCCAUGGAAACUAGGAGCACCAUUUCGCUGCCAGUGAAGAAAUGAACAAAGAAAAUCUGGGCCAGGCAGGCAUCAAAAGAAAUAGUCUUGCUCUCAACCAGAAAGUCUGUAACCAUUUUAAGGGUA [G106U U127C], the self-cleavage was 0.01.
